Assay results reported in paper PMC9097876 (Science Immunology, 2022).

B1: C98C7 Fab (Fab, V domains shown)
VH: EVQLVESGGGLVQPGGSLRLSCAASGITVSSNYMSWVRQAPGKGLEWVSVIYSGGSTFYADSVKGRFTISRDNSKNTLYLQMSSLRAEDTAVYYCARDLVVFGMDVWGQGTTVTVSS
VL: EIVLTQSPGTLSLSPGETATLSCRASQSVGSSYLTWYQQKPGQAPRLLIYGASSRATGIPDRFSGSGSGTDFTLTISRLEPEDFAVYYCQHYGSSPTFGQGTKVEIK
B2: C98C7 Fab (Fab, V domains shown)
VH: EVQLVESGGGLVQPGGSLRLSCAASGITVSSNYMSWVRQAPGKGLEWVSVIYSGGSTFYADSVKGRFTISRDNSKNTLYLQMSSLRAEDTAVYYCARDLVVFGMDVWGQGTTVTVSS
VL: EIVLTQSPGTLSLSPGETATLSCRASQSVGSSYLTWYQQKPGQAPRLLIYGASSRATGIPDRFSGSGSGTDFTLTISRLEPEDFAVYYCQHYGSSPTFGQGTKVEIK
B3: G32Q4 Fab (Fab, V domains shown)
VH: QVQLVESGGGVVQPGRSLRLSCAASGFTFSRYAMQWVRQAPGKGLEWVAVISYDGNNRYYADSVKGRFTISRDNSKNTLYLQMNSLRAEDTAVYYCARGPPGYYDSSGYYQTPEYFQHWGQGTLVTVSS
VL: QSVLTQPPSVSGAPGQRVTISCTGSSSNIGVGYDVHWYQQFPGTVPKLLIYGNSNRPSGVPDRFSGSKSGTSASLAITGLQAEDEADYYCQSYDSSLSGVVFGGGTKLTVL
B4: G32Q4 Fab (Fab, V domains shown)
VH: QVQLVESGGGVVQPGRSLRLSCAASGFTFSRYAMQWVRQAPGKGLEWVAVISYDGNNRYYADSVKGRFTISRDNSKNTLYLQMNSLRAEDTAVYYCARGPPGYYDSSGYYQTPEYFQHWGQGTLVTVSS
VL: QSVLTQPPSVSGAPGQRVTISCTGSSSNIGVGYDVHWYQQFPGTVPKLLIYGNSNRPSGVPDRFSGSKSGTSASLAITGLQAEDEADYYCQSYDSSLSGVVFGGGTKLTVL

Tests used:
Conditions in all cases: both partners purified
[1] = molecular target: T1, SARS-CoV-2 spike receptor-binding domain (RBD), Delta variant (SARS-CoV-2, Delta variant (B.1.617.2), L452R | T478K); assay: BLI
T1 construct: not shown: His tag, C-terminal, kept

[2] = molecular target: SARS-CoV-2 spike hexapro, prefusion stabilized spike ectodomain trimer (SARS-CoV-2, Wuhan, UniProt P0DTC2, stabilised); assay: cryo-EM structure
[3] = molecular target: T2, SARS-CoV-2 spike receptor-binding domain (RBD), Gamma variant (SARS-CoV-2, Gamma (P.1), E484K | N501Y); assay: BLI
T2 construct: not shown: His tag, C-terminal, kept

[4] = molecular target: T3, SARS-CoV-2 spike receptor-binding domain (RBD), Alpha variant (SARS-CoV-2, Alpha variant (B.1.1.7), N501Y); assay: BLI
T3 construct: not shown: His tag, C-terminal, kept

[5] = molecular target: T4, SARS-CoV-2 spike receptor-binding domain (RBD), Wuhan isolate (SARS-CoV-2, Wuhan, UniProt P0DTC2); assay: BLI
T4 construct: not shown: His tag, C-terminal, kept

[6] = molecular target: T5, SARS-CoV-2 spike receptor-binding domain (RBD), Delta variant (SARS-CoV-2, Delta variant (B.1.617.2), L452R | T478K); assay: BLI; remark: listed apart in the source
T5 construct: not shown: His tag, C-terminal, kept

[7] = molecular target: T6, SARS-CoV-2 spike receptor-binding domain (RBD), Gamma variant (SARS-CoV-2, Gamma variant (P.1), E484K | N501Y); assay: BLI
T6 construct: not shown: His tag, C-terminal, kept

[8] = molecular target: T7, SARS-CoV-2 spike receptor-binding domain (RBD), Alpha variant (SARS-CoV-2, Alpha variant (B.1.1.7), N501Y); assay: BLI; remark: listed apart in the source
T7 construct: not shown: His tag, C-terminal, kept

| Binder | Kd [1] | koff [1] | kon [1] | binding result [2] | Kd [3] | Kd [4] | Kd [5] | Kd [6] | koff [7] | kon [7] | koff [8] | kon [8] |
| --- | --- | --- | --- | --- | --- | --- | --- | --- | --- | --- | --- | --- |
| B1 | 3.5 nM | 0.00099 s⁻¹ | 280000 M⁻¹ s⁻¹ |  |  |  |  |  |  |  |  |  |
| B2 |  |  |  | binds | 1 nM | 6 nM | 3 nM | 3 nM |  |  |  |  |
| B3 |  | 0.0062 s⁻¹ | 1.2e+06 M⁻¹ s⁻¹ |  |  |  |  |  | 0.0025 s⁻¹ | 2e+06 M⁻¹ s⁻¹ | 0.007 s⁻¹ | 930000 M⁻¹ s⁻¹ |
| B4 |  |  |  | binds | 13 nM | 75 nM | 57 nM | 53 nM |  |  |  |  |
